Like-named read-outs stand apart in the source and are kept apart here.
How the values were obtained:
Experiment in all cases: EMSA
[1] = target: T1, DNMT1 (BAH1-BAH2-MTase fragment) (human, UniProt P26358 728-1600)
[2] = target: T1, DNMT1 (BAH1-BAH2-MTase fragment); remark: listed apart in the source
[3] = target: T1, DNMT1 (BAH1-BAH2-MTase fragment); remark: listed apart in the source
[4] = target: T1, DNMT1 (BAH1-BAH2-MTase fragment); remark: listed apart in the source
[5] = target: T1, DNMT1 (BAH1-BAH2-MTase fragment); remark: listed apart in the source
DNMT3A;DNMT3L = DNMT3A;DNMT3L (human;human, UniProt Q9Y6K1;Q9UJW3 628-912;178-386, |)
DNMT3B;DNMT3L = DNMT3B;DNMT3L (human;human, UniProt Q9UBC3;Q9UJW3 562-853;178-386, |)
DNMT3B;DNMT3L, sequence (Q9UJW3 178-386, chain 2 of 2, other chains not shown): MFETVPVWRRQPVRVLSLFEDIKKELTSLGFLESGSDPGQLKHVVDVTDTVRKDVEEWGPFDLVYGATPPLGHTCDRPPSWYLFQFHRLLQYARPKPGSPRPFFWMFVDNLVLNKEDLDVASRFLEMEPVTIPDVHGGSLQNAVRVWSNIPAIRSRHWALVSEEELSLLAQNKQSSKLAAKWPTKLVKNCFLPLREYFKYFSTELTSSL

T1 sequence (P26358 728-1600): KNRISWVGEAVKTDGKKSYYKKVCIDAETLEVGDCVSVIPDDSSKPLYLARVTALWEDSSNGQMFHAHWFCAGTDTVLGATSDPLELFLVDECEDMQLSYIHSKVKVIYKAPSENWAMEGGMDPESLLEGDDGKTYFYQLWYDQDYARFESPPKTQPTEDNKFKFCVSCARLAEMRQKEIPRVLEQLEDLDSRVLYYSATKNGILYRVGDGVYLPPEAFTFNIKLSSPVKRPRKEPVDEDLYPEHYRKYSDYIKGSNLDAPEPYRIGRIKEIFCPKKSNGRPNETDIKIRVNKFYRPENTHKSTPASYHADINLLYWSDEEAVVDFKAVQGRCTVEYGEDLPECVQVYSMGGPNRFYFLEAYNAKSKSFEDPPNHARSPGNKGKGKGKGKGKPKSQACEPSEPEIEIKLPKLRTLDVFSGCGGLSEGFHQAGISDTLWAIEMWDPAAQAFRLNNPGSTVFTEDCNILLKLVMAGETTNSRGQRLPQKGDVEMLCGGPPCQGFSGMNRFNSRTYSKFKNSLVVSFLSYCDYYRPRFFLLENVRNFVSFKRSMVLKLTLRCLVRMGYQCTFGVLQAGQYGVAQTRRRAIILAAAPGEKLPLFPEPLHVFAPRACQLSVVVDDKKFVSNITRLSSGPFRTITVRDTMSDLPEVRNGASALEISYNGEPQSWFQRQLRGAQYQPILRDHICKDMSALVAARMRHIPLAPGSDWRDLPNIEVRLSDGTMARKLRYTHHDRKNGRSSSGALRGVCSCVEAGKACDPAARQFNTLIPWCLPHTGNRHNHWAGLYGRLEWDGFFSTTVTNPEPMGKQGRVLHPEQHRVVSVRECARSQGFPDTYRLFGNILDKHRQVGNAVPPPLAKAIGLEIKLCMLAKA
DNMT3A;DNMT3L, sequence (Q9Y6K1 628-912, chain 1 of 2): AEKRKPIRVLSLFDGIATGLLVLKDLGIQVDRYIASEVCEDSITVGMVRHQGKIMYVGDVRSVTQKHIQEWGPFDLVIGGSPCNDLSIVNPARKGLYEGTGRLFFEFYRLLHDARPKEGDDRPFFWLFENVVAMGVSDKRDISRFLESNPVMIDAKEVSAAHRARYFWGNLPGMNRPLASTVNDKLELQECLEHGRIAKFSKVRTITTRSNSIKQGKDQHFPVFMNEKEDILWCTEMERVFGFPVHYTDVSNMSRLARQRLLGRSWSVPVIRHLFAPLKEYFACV
DNMT3A;DNMT3L, sequence (Q9UJW3 178-386, chain 2 of 2): as the sequence (Q9UJW3 178-386, chain 2 of 2, other chains not shown) above

B1: Modified ssDNA #6 (ssDNA)
DNA: CGTAGATGTGCTGACATCTACGG
B1: no binding [1].

B2: Apt. #11 (ssDNA)
DNA: AGATGTGCGAGTGACATCTCAACGGCCTAT
B2: binds [1].

B3: Modified ssDNA #7 (ssDNA)
DNA: CAGATGTGCGAGTGACATCTC
B3: no binding [2].

B4: Apt. #8 (ssDNA)
DNA: CGTAGATGTGCGAGTGACATCTACGG
B4: binds [1].

B5: Steml (ssDNA)
DNA: ATAGAAGTGGGGGTGAGTCCACTTCTATG
B5: binds [3].

B6: hemiDNA 36-mer (dsDNA)
DNA 1: GACGACGACGACGACGACGACGACGACGACGACGAC
DNA 2: GTCGTCGTCGTCGTCGTCGTCGTCGTCGTCGTCGTC
modifications: 5-methylcytosine at every C of strand 2
With B6 the binding signal [4] was ~4 fold weaker than Apt. #9.

B7: R2 RNA (ssRNA)
RNA: CCCGGGACGCGGGUCCGGGACAG
In the case of B7, the binding signal [5] is reported as ~4 fold less binding than Apt. #9.

B8: Bulge2 (ssDNA)
DNA: AGATCTGGGGGTGAGTCCACTTCTG
B8: binds [3].

B9: Apt. #9 (ssDNA)
DNA: AGAAGTGGGGGTGAGTCCACTTCTG
For B9, the Kd [1] was 0.77 ± 0.11 µM, the binding result (DNMT3A;DNMT3L) was “no binding” and the binding result (DNMT3B;DNMT3L) was “no binding”.

B10: non-binding ssDNA #12 (ssDNA)
DNA: TGCGAGTGACATCTCAACGG
B10: no binding [1].

B11: Apt. #10 (ssDNA)
DNA: CCCATGCGTAGGGTCTGATGCCTATGCGTG
B11: binds [1].

B12: Modified ssDNA #5 (ssDNA)
DNA: CGTCAGATGTGCGAGTGACATCTCAACGG
B12: no binding [1].

— article PMC7145629
